Changes are numbered by the printed parent chain. Names may count otherwise. “And” between values parts separate entries of the source, which are not always exact repeats. Equal entries are not always repeated.
B1: A02_Rd4_6nM_C04 (antibody, V domains shown)
VH: EVQLLESGGGLVQPGGSLRLSCAASGFTFSSYAMNWVRQAPGKGLEWVSAIMSSGGPLYYADSVKGRFTISRDNSKNTLYLQMNSLRAEDTAVYYCARYWPMALWGQGTLVTVSS
VL: EIVLTQSPGTLSLSPGERATLSCRASQSVSALYLAWYQQKPGQAPRLLMYDASIRATGIPDRFSGSGSGTDFTLTISRLEPEDFAVYYCQQYQVWPLTFGQGTKVEIK
B2: A02_Rd4_0.6nM_C18 (antibody, V domains shown)
VH: B1 VH with I51V, M52L, S53D, P57S, L58T, A103S
VL: B1 VL with A31E, Q93F, V94G
B3: A02_Rd4_6nM_C08 (antibody, V domains shown)
VH: B1 VH with M52L, S53D, P57S, L58T, A103S, L104P
VL: B1 VL with A31F, Q93G, V94S
B4: A02_Rd4_6nM_C19 (antibody, V domains shown)
VH: B1 VH with M52S, S53D, P57S, L58R, Y59W, A103S, L104D
VL: B1 VL with A31V, Q93L, V94A
B5: A02_Rd4_0.6nM_C06 (antibody, V domains shown)
VH: B1 VH with M52S, S53D, P57S, L58A, Y59W, A103S
VL: B1 VL with A31V, V94R
B6: A02_Rd4_6nM_C16 N297Q/K222R Aclys vc0101 (antibody, V domains shown)
VH: B1 VH with M52S, S53D, S54F, P57S, L58T, A103D, L104I
VL: B1 VL with A31D, V94T
modifications: N297Q and K222R (EU) in the human IgG1 constant region; AcLys-Val-Cit-PABC-Aur0101 joined by transglutaminase to the glutamine at 297
B7: Combo_Rd4_0.6nM_C29 H7c/N297A/K222R AmPEG6 Aur0131 (antibody, V domains shown)
VH: B1 VH with A33P, N35S, M52G, S53G, P57S, Y59P, A103D, L104I
VL: B1 VL with A31S, L32S, V94S
modifications: H7c tag LLQG (SEQ ID NO: 454), N297A and K222R (EU) in the human IgG1 heavy chain constant region; amino-PEG6-C2-Aur0131 joined by transglutaminase
B8: Combo_Rd4_0.6nM_C29 LCQ05/N297Q/K222R Aclys vc0101 (antibody, human IgG1, part only)
heavy: B1 VH with A33P, N35S, M52G, S53G, P57S, Y59P, A103D, L104I
light: B1 VL with A31S, L32S, V94S
chain: GGLLQGPP
modifications: LCQ05 tag; Aclys vc0101 drug conjugate
B9: Combo_Rd4_0.6nM_C29 H7c/N297A/K222R AmPEG6 Aur3377 (antibody, V domains shown)
VH: B1 VH with A33P, N35S, M52G, S53G, P57S, Y59P, A103D, L104I
VL: B1 VL with A31S, L32S, V94S
modifications: H7c tag LLQG (SEQ ID NO: 454), N297A and K222R (EU) in the human IgG1 heavy chain constant region; amino-PEG6-C2-Aur3377 joined by transglutaminase
B10: Combo_Rd4_0.6nM_C29 N297Q/K222R Aclys vc0101 (antibody, V domains shown)
VH: B1 VH with A33P, N35S, M52G, S53G, P57S, Y59P, A103D, L104I
VL: B1 VL with A31S, L32S, V94S
modifications: N297Q and K222R (EU) in the human IgG1 constant region; AcLys-Val-Cit-PABC-Aur0101 joined by transglutaminase to the glutamine at 297
B11: Combo_Rd4_0.6nM_C29 LCQ05/K222R Aclys vc0101 (antibody, human IgG1, part only)
heavy: B1 VH with A33P, N35S, M52G, S53G, P57S, Y59P, A103D, L104I
light: B1 VL with A31S, L32S, V94S
chain: GGLLQGPP
modifications: LCQ05 tag; Aclys vc0101 drug conjugate

The binders below were run against cynomolgus BCMA (cynomolgus (given as cyBCMA, Cyno)) (assay: SPR, IgG immobilized, cyno BCMA analyte, 37 C).
cynomolgus BCMA (cynomolgus (given as cyBCMA, Cyno)), sequence (chain, as listed by the source): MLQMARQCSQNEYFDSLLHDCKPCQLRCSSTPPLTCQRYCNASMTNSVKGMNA

Kd [nM] | koff [s⁻¹] | kon [M⁻¹ s⁻¹] | Binder
0.381 | 0.000831 | 2.18e+06 | B1
0.197 | 0.000639 | 3.24e+06 | B2
5.07 | 0.0113 | 2.23e+06 | B3
0.26 | 0.000661 | 2.54e+06 | B4
0.058 | 0.000105 | 1.81e+06 | B5

The binders below were run against human BCMA on BCMA-expressing tumor cells (human) (UniProt Q02223) (assay: cell-based or functional assay).
human BCMA on BCMA-expressing tumor cells (human), sequence (Q02223 whole entry): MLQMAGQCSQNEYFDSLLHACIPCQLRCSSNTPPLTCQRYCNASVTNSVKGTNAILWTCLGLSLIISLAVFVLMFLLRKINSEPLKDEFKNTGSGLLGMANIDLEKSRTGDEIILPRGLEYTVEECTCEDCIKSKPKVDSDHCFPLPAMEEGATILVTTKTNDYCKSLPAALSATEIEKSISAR

Binder | EC50, cell viability (CellTiter-Glo, 96 h), KMS12BM LUCGFP (+) | EC50, cell viability (CellTiter-Glo, 96 h), L363 LUCGFP (+) | EC50, cell viability (CellTiter-Glo, 96 h), MM1.S LUCGFP (BCMA++)
B6 | 38.7 nM and 5.81 µg/mL | 9.68 nM and 1.45 µg/mL | 0.8 nM and 0.12 µg/mL
B7 | 0.85 nM and 0.13 µg/mL | 0.81 nM and 0.12 µg/mL | 0.23 nM and 0.03 µg/mL
B8 | 1.19 nM and 0.18 µg/mL | 1.05 nM and 0.16 µg/mL | 0.34 nM and 0.05 µg/mL
B9 | 5.01 nM and 0.75 µg/mL | 1.36 nM and 0.2 µg/mL | 0.3 nM and 0.05 µg/mL
B10 | 0.99 nM and 0.15 µg/mL | 0.66 nM and 0.1 µg/mL | 0.11 nM and 0.02 µg/mL
B11 | 10.9 nM and 1.64 µg/mL | 1.67 nM and 0.25 µg/mL | 0.13 nM and 0.02 µg/mL

Source: patent US20240018252A1
